± gives the uncertainty stated by the source.
B1: CD2-associated protein, residues 109 to 169; numbered along this chain, Q9Y5K6 (parent)
chain: KKRQCKVLFEYIPQNEDELELKVGDIIDINEEVEEGWWSGTLNNKLGLFPSNFVKELEVTD

Variants of: B1
Experiment: abundance fitness (aPCA) (normalised: wild type 0, dead -1); higher = more abundant; growth selection in yeast, the domain comes from the species named
Settings: Homo sapiens

KKRQCKVLFEYIPQNEDELELKVGDIIDINEEVEEGWWSGTDNNKLGLFPSNFVKELEVTD and KKRQCKVLFEYIPQNEDELELKVGDIIDINEEVEEGWWSGTNNNKLGLFPSNFVKELEVTD are within error of each other in abundance fitness: -0.241 ± 0.3 for the first, 0.12 ± 0.15 for the second.

KKRQCKVLFEYIPQNEDELELKVGDIIDINEEVEEGWWSGTCNNKLGLFPSNFVKELEVTD and KKRQCKVLFEYIPQNEDELELKVGDIIDINEEVEEGWWSGTGNNKLGLFPSNFVKELEVTD are within error of each other in abundance fitness: -0.174 ± 0.16 for the first, -0.451 ± 0.12 for the second.

KKRQCKVLFEYIPQNEDELELKVGDIIDINEEVEEGWWSGTHNNKLGLFPSNFVKELEVTD and KKRQCKVLFEYIPQNEDELELKVGDIIDINEEVEEGWWSGTPNNKLGLFPSNFVKELEVTD are within error of each other in abundance fitness: -0.252 ± 0.32 for the first, -0.732 ± 0.41 for the second.

Going from KKRQCKVLFEYIPQNEDELELKVGDIIDINEEVEEGWWSGTWNNKLGLFPSNFVKELEVTD to KKRQCKVLFEYIPQNEDELELKVGDIIDINEEVEEGWWSGTRNNKLGLFPSNFVKELEVTD, the abundance fitness rises from -0.945 ± 0.45 to -0.388 ± 0.084.

KKRQCKVLFEYIPQNEDELELKVGDIIDINEEVEEGWWSGTYNNKLGLFPSNFVKELEVTD and KKRQCKVLFEYIPQNEDELELKVGDIIDINEEVEEGWWSGTKNNKLGLFPSNFVKELEVTD are within error of each other in abundance fitness: -0.01 ± 0.2 for the first, -0.317 ± 0.12 for the second.

KKRQCKVLFEYIPQNEDELELKVGDIIDINEEVEEGWWSGTTNNKLGLFPSNFVKELEVTD and KKRQCKVLFEYIPQNEDELELKVGDIIDINEEVEEGWWSGTINNKLGLFPSNFVKELEVTD are within error of each other in abundance fitness: -0.131 ± 0.13 for the first, -0.242 ± 0.23 for the second.

Compared with KKRQCKVLFEYIPQNEDELELKVGDIIDINEEVEEGWWSGTVNNKLGLFPSNFVKELEVTD, KKRQCKVLFEYIPQNEDELELKVGDIIDINEEVEEGWWSGTANNKLGLFPSNFVKELEVTD is lower in abundance fitness: -0.064 ± 0.1 for the first, -0.391 ± 0.12 for the second.

KKRQCKVLFEYIPQNEDELELKVGDIIDINEEVEEGWWSGTQNNKLGLFPSNFVKELEVTD and KKRQCKVLFEYIPQNEDELELKVGDIIDINEEVEEGWWSGTSNNKLGLFPSNFVKELEVTD are within error of each other in abundance fitness: -0.432 ± 0.4 for the first, 0.042 ± 0.1 for the second.

KKRQCKVLFEYIPQNEDELELKVGDIIDINEEVEEGWWSGTLENKLGLFPSNFVKELEVTD and KKRQCKVLFEYIPQNEDELELKVGDIIDINEEVEEGWWSGTLPNKLGLFPSNFVKELEVTD are within error of each other in abundance fitness: -0.333 ± 0.27 for the first, -0.791 ± 0.36 for the second.

First: KKRQCKVLFEYIPQNEDELELKVGDIIDINEEVEEGWWSGTLLNKLGLFPSNFVKELEVTD
Second: KKRQCKVLFEYIPQNEDELELKVGDIIDINEEVEEGWWSGTLMNKLGLFPSNFVKELEVTD
The abundance fitness of the first is lower: -0.489 ± 0.1 for the first, -0.144 ± 0.17 for the second.

KKRQCKVLFEYIPQNEDELELKVGDIIDINEEVEEGWWSGTLKNKLGLFPSNFVKELEVTD and KKRQCKVLFEYIPQNEDELELKVGDIIDINEEVEEGWWSGTLGNKLGLFPSNFVKELEVTD are within error of each other in abundance fitness: -0.544 ± 0.33 for the first, -0.09 ± 0.13 for the second.

KKRQCKVLFEYIPQNEDELELKVGDIIDINEEVEEGWWSGTLRNKLGLFPSNFVKELEVTD and KKRQCKVLFEYIPQNEDELELKVGDIIDINEEVEEGWWSGTLFNKLGLFPSNFVKELEVTD are within error of each other in abundance fitness: 0.061 ± 0.073 for the first, -0.137 ± 0.27 for the second.

KKRQCKVLFEYIPQNEDELELKVGDIIDINEEVEEGWWSGTLHNKLGLFPSNFVKELEVTD and KKRQCKVLFEYIPQNEDELELKVGDIIDINEEVEEGWWSGTLQNKLGLFPSNFVKELEVTD are within error of each other in abundance fitness: -0.014 ± 0.21 for the first, -0.275 ± 0.15 for the second.

KKRQCKVLFEYIPQNEDELELKVGDIIDINEEVEEGWWSGTLSNKLGLFPSNFVKELEVTD and KKRQCKVLFEYIPQNEDELELKVGDIIDINEEVEEGWWSGTLCNKLGLFPSNFVKELEVTD are within error of each other in abundance fitness: -0.337 ± 0.11 for the first, -0.19 ± 0.37 for the second.

KKRQCKVLFEYIPQNEDELELKVGDIIDINEEVEEGWRSGTLNNKLGLFPSNFVKELEVTD and KKRQCKVLFEYIPQNEDELELKVGDIIDINEEVEEGWVSGTLNNKLGLFPSNFVKELEVTD are within error of each other in abundance fitness: -0.586 ± 0.11 for the first, -0.46 ± 0.098 for the second.

First: KKRQCKVLFEYIPQNEDELELKVGDIIDINEEVEEGWYSGTLNNKLGLFPSNFVKELEVTD
Second: KKRQCKVLFEYIPQNEDELELKVGDIIDINEEVEEGWMSGTLNNKLGLFPSNFVKELEVTD
The abundance fitness of the first is higher: 0.109 ± 0.13 for the first, -0.223 ± 0.11 for the second.

KKRQCKVLFEYIPQNEDELELKVGDIIDINEEVEEGWDSGTLNNKLGLFPSNFVKELEVTD and KKRQCKVLFEYIPQNEDELELKVGDIIDINEEVEEGWTSGTLNNKLGLFPSNFVKELEVTD are within error of each other in abundance fitness: -0.587 ± 0.33 for the first, -0.618 ± 0.15 for the second.

KKRQCKVLFEYIPQNEDELELKVGDIIDINEEVEEGWGSGTLNNKLGLFPSNFVKELEVTD and KKRQCKVLFEYIPQNEDELELKVGDIIDINEEVEEGWQSGTLNNKLGLFPSNFVKELEVTD are within error of each other in abundance fitness: -0.569 ± 0.16 for the first, -0.55 ± 0.15 for the second.

Compared with KKRQCKVLFEYIPQNEDELELKVGDIIDINEEVEEGWPSGTLNNKLGLFPSNFVKELEVTD, KKRQCKVLFEYIPQNEDELELKVGDIIDINEEVEEGWISGTLNNKLGLFPSNFVKELEVTD is higher in abundance fitness: -0.787 ± 0.31 for the first, -0.057 ± 0.15 for the second.

KKRQCKVLFEYIPQNEDELELKVGDIIDINEEVEEGWCSGTLNNKLGLFPSNFVKELEVTD and KKRQCKVLFEYIPQNEDELELKVGDIIDINEEVEEGWHSGTLNNKLGLFPSNFVKELEVTD are within error of each other in abundance fitness: -0.385 ± 0.18 for the first, -0.679 ± 0.29 for the second.

KKRQCKVLFEYIPQNEDELELKVGDIIDINEEVEEGWFSGTLNNKLGLFPSNFVKELEVTD and KKRQCKVLFEYIPQNEDELELKVGDIIDINEEVEEGWNSGTLNNKLGLFPSNFVKELEVTD are within error of each other in abundance fitness: -0.263 ± 0.12 for the first, -0.605 ± 0.26 for the second.

KKRQCKVLFEYIPQNEDELELKVGDIIDINEEVEEGWKSGTLNNKLGLFPSNFVKELEVTD and KKRQCKVLFEYIPQNEDELELKVGDIIDINEEVEEGWSSGTLNNKLGLFPSNFVKELEVTD are within error of each other in abundance fitness: -0.669 ± 0.2 for the first, -0.49 ± 0.092 for the second.
